From the supplement of paper PMC9170038

Test system: K4 kissing-loop RNA reporter
Experiment: apparent KD of K4 kissing-loop reporter; higher = weaker reporter binding
Conditions: Eterna round: R107
Procedure: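 RNA-MaP round R107: designed RNA switches with theophylline, tryptophan, arginine or FMN aptamers are transcribed on-chip within common flanks. They are titrated with a labelled K4 kissing-loop RNA reporter in RNA-MaP buffer (100 mM Tris pH 7.5, 80 mM KCl, 4 mM MgCl2), without ligand or with the indicated ligand. Median apparent KD per design.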

[1] = input ligand: theophylline 20 uM
[2] = input ligand: tryptophan 2.4 mM
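Note: bound reporter read as fluorescence of individual clusters on recovered sequencing chips by microscopy, with normalized cluster intensities fitted with a binding model.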

Sequence | apparent KD of K4 kissing-loop reporter (input ligand: FMN 200 uM) | apparent KD of K4 kissing-loop reporter (input ligand: arginine 13.2 mM) | apparent KD of K4 kissing-loop reporter (input ligand: none) | apparent KD of K4 kissing-loop reporter [1] | apparent KD of K4 kissing-loop reporter [2]
AGGUCACCACUACAGUGAUGUUGUGGAGAGCAGGAUAUGCAGAAAUGCAGAAGGGCUCGCUCUCGGUGACCGAAUGAAACAUUCA [Omei KL FMN A SS A v7] | 0.404 µM | 0.67 µM | 0.766 µM | 0.476 µM | 0.704 µM
AGUACAAUGGCGGCCGCCACUCAAUGGCAGAUCAAAGAUCUGUAUCACUCAGUGAUGUUGAGUGAGAGGACCGGGCCUUUGUACA [Omei KL Tryp B SS B v9] | 0.604 µM | 0.477 µM | 0.5 µM | 0.514 µM | 0.187 µM
AGUGAUGUUGUGUUGUGUUAGGGAAGUGAUCGAGGACCGGUACGGCCGCCACUCGAGUGAUGAGUGAGUGAUGUUUGUUUAGGGA [whbob_SS_Tryp_A_m8] | 0.926 µM | 1.29 µM | 0.395 µM | 3.23 µM | 0.375 µM
AGUGGACAUGUCUAGAGUGAUGUUCUGGAUACCAGACACGAAAGUGUCCCUUGGCAGCCGGAGUGAUGUUCUGGCGUUCACUAAA [Omei KL Theo A Exc B v7] | 0.476 µM | 0.267 µM | 0.405 µM | 0.414 µM | 0.341 µM
AGUUAUGUUGCGGCCGCCACUGCGCGAGUGAUGUUCGUGGCAUAUAUAAUGUUAUAUAUGCAUCACAGGACCGGGCGGCAUAGCG [Same State - Tryptophan B] | 0.512 µM | 0.313 µM | 0.375 µM | 0.329 µM | 0.152 µM
AGUUUAUAGGAGGAUACCAGUACGGAUAAGGUACGUUAAUAGUAGAGUGAUGUUCUAAAGUACCCUUGGCAGCUUAGAUUGAGUU [#27 K4 Theophylline B Exclusion] | 0.11 µM | 0.171 µM | 0.13 µM | 0.133 µM | 0.101 µM
AUAACAAUCUGAAGGAGCGAGAAAGCAGUGAUGUUGCAAAGGCGAGUGAUGUUCGCAAUAACUCAGGUAGGUCGCAGAAACAAGA [Same State Arginine B] | 0.142 µM | 0.142 µM | 0.187 µM | 0.193 µM | 0.119 µM
AUACACGUUGCGGCCGCCACUUCGAUUAGUGAUGUUAGGUGUAAGCAGGCGCUGCAUUAAUGUGAAAGGACCGGGCAGAGUAAGC [theeternabot_exclusion_KL_Trp_B_39] | 0.203 µM | 0.114 µM | 0.16 µM | 0.206 µM | 0.148 µM
AUACGUUUAAGUGAUACCAGACAUGUGAGUGAUGUUUACAAAUAAAUUAAAUUUUUAGCUGUCCCUUGGCAGCACAGUUUAUUUA [JR_ExcTheophyB_Sub002] | 0.516 µM | 0.517 µM | 0.594 µM | 0.61 µM | 0.43 µM
AUAGAAAAGUGGCACCCUCACUAAAACAGUCGAGGACCGGUACGGCCGCCACUCGCGCGCUUUAGUGAUGUUAAAGCUAUGCAAA | 0.407 µM | 0.358 µM | 0.38 µM | 0.407 µM | 0.105 µM
AUAUUGGUUGAGAGUGAUGUUCCUUGUGUUCGAGGACCGGUACGGCCGCCACUCGGGUAGAAAAUAAAAGAUAUGUUUGAUUUUU [BDazzled - #12 SS Tryptophan A] | 0.162 µM | 0.0291 µM | 0.242 µM | 0.943 µM | 0.279 µM
AUAUUUAUUUAGUCACUUUUAAUAUUAUGUCAGGAUAUCGUAAUUUCGAGAAGGGACUCAUGCUAGUGAUGUUAGCUAAUUCUCA [JR_Nu3_ExcFMNA_Sub023] | 0.102 µM | 0.161 µM | 0.135 µM | 0.16 µM | 0.11 µM
AUCACAGUGAUGUUGUGAUAUGGUACAGAUACCAGACUAGUGCUAGUCCCUUGGCAGCUGUACUCAGCAGCACCACUAGCACUCG [Theo A Ex t6b] | 0.147 µM | 0.131 µM | 0.145 µM | 0.153 µM | 0.128 µM
AUGCCUCUGGCUGAUACCAGUGAUGCAGGGUAUGAGACAGGGAGUGAUGUUCCCUGCAGCCACCCUUGGCAGCAGUUUAAGUUUG [Exclusion Theophylline B GF 20] | 0.184 µM | 0.18 µM | 0.185 µM | 0.197 µM | 0.168 µM
AUGCGCGCGGCGGCCGCCACUCGCAUGAGAGUGAUGUUCUCACCGUGACCGUAAGGUCGCGGUGUGAGGACCGGGCCGGGCUGCG [#2 Same State - Tryptophan B Attempt #23 (HarryS)] | 0.0284 µM | 0.0727 µM | 0.245 µM | 0.281 µM | 0.118 µM
AUGCGCGCGGCGGCCGCCACUCGCAUGAGAGUGAUGUUCUCGCCGGGCCCGAAAGGGCCCGGUGUGAGGACCGGGCCGGGCUGCG [#2 Same State - Tryptophan B Attempt #15 (HarryS)] | 0.176 µM | 0.0649 µM | 0.145 µM | 0.0918 µM | 0.237 µM

Sequence | apparent KD of K4 kissing-loop reporter (input ligand: FMN 200 uM) | apparent KD of K4 kissing-loop reporter (input ligand: arginine 13.2 mM) | apparent KD of K4 kissing-loop reporter (input ligand: none) | apparent KD of K4 kissing-loop reporter [1] | apparent KD of K4 kissing-loop reporter [2]
AUGGUGGAUCAGUGAUGUUGGUGGAGUAGGUAGGAUAUGAGUGAUGUUAGAAGGAUCGGAGUGAUGUUCCAGGUGGUUGUGUUGU [KL-SSFMN-A3] | 0.54 µM | 0.302 µM | 0.548 µM | 0.516 µM | 0.389 µM
AUGUACACGAUAGUGUACUCCUAGUGAUGUUAGGAUAUGCAGAUAUGCAGAAGGAACAAGUCAUCUGACAAUAGUCGGAUGACAA [FmnAX 9 #OpenEnded #K4Early] | 0.388 µM | 0.0925 µM | 0.119 µM | 0.125 µM | 0.0941 µM
AUGUAUGAAUUAGGAUAUCGUGAGCCUUGCAUAUAUAUGAUAAAUGGAUAUGUCGUAGUGAUGUUACGAGAAGGAGUGUGGAGUA [KL-XFMN-B4] | 0.045 µM | 0.0616 µM | 0.0455 µM | 0.0712 µM | 0.0391 µM
AUGUUGAGCGGAAGGAGCGGCUGAGCCAGUGAUGUUGGUUAAUCCAAGUGAUGUUGGAAAAGCCAGGUAGGUCGCCGCUUUACGU [whbob_SS_Arginine_B_2t144] | 1.01 µM | 0.741 µM | 1.04 µM | 0.926 µM | 0.832 µM
AUUAAUUUCAGAGGAUAUCGUGAUUUUAUUUAAUUUAUUCAUUUGUGCAGUGAUGUUGCUAAUAUUCGAGAAGGCUGAUUUAUAA [whbob_Ex_FMNB__2th224] | 0.107 µM | 0.109 µM | 0.0462 µM | 0.11 µM | 0.0449 µM
AUUAAUUUCAGAGGAUAUGCUUAAUUGAUUUAUUAUUAUCUAUUAUGCAGUGAUGUUGCAUAUUUUGCAGAAGGCUGAUUUAUAA [JR_SSFMNB_Sub018] | 0.123 µM | 0.156 µM | 0.14 µM | 0.156 µM | 0.125 µM
AUUCUAUUGUGAAGGAGCGCGACUAGUAGUGAUGUUACUAUAUGACUUUAGUCUUAAUUCUCGCAGGUAGGUCGCACAAUAUAUA [JR_Nu_SSArginiB_Sub028] | 0.913 µM | 0.594 µM | 0.796 µM | 0.732 µM | 0.755 µM
AUUUAGACGAGUGAUGUUCGUGUUAAUACAGAGGAUAUGCGUGAUUGCAGAAGGCUGUAUUUAUAUAUGUUAUGUGGUUUUAAAA [whbob_Ex_FMNA__2th187] | 0.0766 µM | 0.115 µM | 0.0872 µM | 0.0997 µM | 0.0663 µM
AUUUAGACGAGUGAUGUUCGUGUUAUUACAGAGGAUAUGCGUAAAAGCAGAAGGCUGUAUUUAUAUUUGUUAUGUAAUUUUAAAA [JR_ExcFMNA_Sub006] | 0.0752 µM | 0.105 µM | 0.0859 µM | 0.094 µM | 0.0639 µM
AUUUAUCCGUCCAGCUGAGUGAUGUUUAGCCGAGGACCGGUACGGCCGCCACUCGUAAGAACCUGUUACGUUGGCUCCUGUGGUG [theeternabot_exclusion_KL_Trp_A_49] | 0.244 µM | 0.196 µM | 0.286 µM | 0.201 µM | 0.353 µM
AUUUUCAAUUUAUUAUAUAACUUUUCAGAAGGAGCGUGGAAGUUCACAGGUAGGUCGCUGAAUAUAGGACUAGUGAUGUUAGUUA [JR_Nu_SSArginiA_Sub023] | 0.284 µM | 0.247 µM | 0.279 µM | 0.268 µM | 0.258 µM
AUUUUGAGUGAUGUUCAUAUCUAUUCUGAAGGAGCGCUAAAUAAGGCAGGUAGGUCGCGGAAUAUAUAUAUAUAUAUAUAUAUAU [KL-SSArg-A30] | 0.538 µM | 0.809 µM | 0.711 µM | 0.624 µM | 0.537 µM
AUUUUGGUUUAGAGUGAUGUUCCUUGUAUUCGAGGACCGGUACGGCCGCCACUCGAAUAGAAAAGAAAAGAAAUGAGUGAUGUUU [BDazzled - #4 SS Tryptophan A] | 0.519 µM | 0.267 µM | 0.362 µM | 0.357 µM | 0.356 µM
AUUUUUUUGUCAGGAUAUUAGUAUGCAUUUAGUUUGUUAGUGAUGUUGAUAUUUUGUUUAUGUAUUUAAGAAGGGAUUUAGCGGU [iiikmullin] | 0.384 µM | 0.217 µM | 0.335 µM | 0.34 µM | 0.306 µM
CAACAGCUUACGGCCGCCACUCCUUUAUAUGGUGCGCACCGUUGAGCUCUAGUGAUGUUGGUGCCGAGGACCGGGUAGGAAAGUA [theeternabot_sameState_KL_Trp_B_31] | 0.468 µM | 0.245 µM | 0.331 µM | 0.448 µM | 0.412 µM
